{
  "source": "paper PMC5473807",
  "about": "“Distribution and kinetics of the Kv1.3-blocking peptide HsTX1[R14A] in experimental rats” (Scientific Reports, 2017)",
  "key": {"[1]": {"test": "Distribution in the blood compartments", "assay_type": "in vivo", "conditions": "rat, i.v., 0-4 h", "procedure": "The analysis of [^64Cu]Cu-NOTA-HsTX1[R14A] degradation was analysed in one rat after single intravenous injection. The gas-anaesthetised (8% desflurane, 30% oxygen, air) rat was prepared on a heating bed for the blood sampling. A needle catheter was inserted in a tail vein and fixed for the injection of the radiotracer and supplementation of the withdrawn volume by E-153 (electrolyte infusion solution). A small incision on the right hind limb was made and a small superficial artery was exposed. A thin tube (polyethylene, 0.3 mm inner and 0.6 mm outer diameter) was inserted, moved to the femoral artery and fixed. Arterial blood samples were collected at 1, 3, 5, 10, 20, 30, 120 min p.i of the [^64Cu]Cu-NOTA-HsTX1[R14A]. After the end of experiment the anaesthetised animals were euthanised by infusion of KCl solution. For the differentiation of the activity distribution in the blood compartments (Fig. 3b) were blood samples centrifuged (3 min at 14,000 × g) to obtain the plasma (plasma total and blood cells in the precipitate). One kidney was homogenised with PBS (30% w/v) and then centrifuged as described for the blood samples. Urine was treated in analogy. All the supernatants from blood, kidney and urine samples were mixed with equal volume of MeCN to precipitate the protein fraction. The samples were again centrifuged (3 min at 14,000 × g), resulting in the precipitate the protein bound fraction (plasma proteins) and the supernatants (e.g. plasma water fraction) were analysed by radio-TLC with RP18 aluminium foil, MeCN/0.1% TFA mixed with H2O/0.1% TFA (v/v 1:1). The TLC plates were measured by radioluminography as described above. Aliquots of the whole blood samples and of all supernatants were measured for the ^64Cu activity concentration in a well counter."}, "[2]": {"test": "Blood clearance kinetics, arterial blood and PET", "assay_type": "in vivo", "conditions": "whole blood, rat, read-out: blood clearance half-life corrected for the metabolites", "procedure": "The procedures are described in detail elsewhere, [34], [35]. Rats were anesthetised using 9% ± 1% desflurane in 30% oxygen and placed on a heat mat. The animals were kept warm under anesthesia until the end of the scan with a total duration of 4 h. The anesthetised animals were localised in a prone position in the axial direction of the scanner. A needle catheter was installed in a lateral tail vein or subcutaneously in the neck for injection using a syringe pump. PET studies were performed with the dedicated small animal PETs NanoPET/CT (Mediso, Budapest, Hungary) and microPET^(R) P4 (Siemens Medical Solutions, Erlangen, Germany). […] Three-dimensional regions of interest (ROI) were determined for subsequent data analysis. The standardised uptake values (SUV, g/mL) and standardised uptake ratios (SUR, as ratio of the SUVs of the tissue of interest and the blood SUV, derived from a region over the caudal arteria abdominalis and vena cava) were used to quantify the activity uptake and kinetics.\nThe analysis of [^64Cu]Cu-NOTA-HsTX1[R14A] degradation was analysed in one rat after single intravenous injection. […] The samples were again centrifuged (3 min at 14,000 × g), resulting in the precipitate the protein bound fraction (plasma proteins) and the supernatants (e.g. plasma water fraction) were analysed by radio-TLC with RP18 aluminium foil, MeCN/0.1% TFA mixed with H2O/0.1% TFA (v/v 1:1). […]"}},
  "note": "Read-outs that look alike come from different tables or passages of the source.",
  "data": [
    {"smiles": "CSCC[C@@H]1NC(=O)[C@@H]2CSSC[C@H](NC(=O)[C@H](CO)NC(=O)[C@H](C)NC(=O)COCCOCCNC(=O)CN3CCN(CC(=O)O)CCN(CC(=O)O)CC3)C(=O)N[C@@H](CCCNC(=N)N)C(=O)N[C@@H]([C@@H](C)O)C(=O)N3CCC[C@H]3C(=O)N[C@@H](CCCCN)C(=O)N[C@@H](CC(=O)O)C(=O)N[C@H]3CSSC[C@H](NC(=O)[C@H](CCCCN)NC(=O)[C@H](CCCNC(=N)N)NC(=O)[C@H](CC(N)=O)NC1=O)C(=O)N[C@@H](CCCCN)C(=O)N[C@H]1CSSC[C@H](NC(=O)[C@@H]4CCCN4C(=O)[C@H](CC(=O)O)NC(=O)[C@H](C)NC3=O)C(=O)N[C@@H](C)C(=O)N[C@@H](CCCCN)C(=O)N[C@@H](CCC(=O)O)C(=O)N[C@@H]([C@@H](C)O)C(=O)NCC(=O)N[C@@H](CSSC[C@@H](C(N)=O)NC(=O)[C@H](CCCNC(=N)N)NC(=O)[C@H](CC(N)=O)NC1=O)C(=O)N1CCC[C@H]1C(=O)N[C@@H](Cc1ccc(O)cc1)C(=O)NCC(=O)N[C@@H](CCCCN)C(=O)N2", "note": "[[^64Cu]Cu-NOTA-HsTX1[R14A], metal not drawn]", "values": [
      {"measurement": "fraction bound to plasma proteins", "setting": "[1]; MeCN precipitate, % of total blood activity", "result": "5 ± 3", "unit": "%"},
      {"measurement": "fraction in blood plasma", "setting": "[1]; centrifugation 3 min at 14,000 x g", "result": "82 ± 4 % of the whole blood ^64Cu activity"},
      {"measurement": "fraction in plasma water", "setting": "[1]; supernatant after MeCN precipitation, % of total blood activity", "result": "75 ± 3", "unit": "%"},
      {"measurement": "half-life", "setting": "[2]; iv, i.v.", "result": 37, "unit": "min"},
      {"measurement": "half-life", "setting": "[2]; sc, s.c.", "result": 51, "unit": "min"}
    ]}
  ]
}
